According to PMC9927934:

Molecular target: L973F mutant human insulin receptor B isoform, FLAG tagged (human)

Shc phosphorylation in L973F-IR cells against WT-IR cells, immunoblot, 1 to 100 nM insulin for 15 minutes (printed together with Gab-1 and ERK phosphorylation): 2 to 4 fold
B1: Shc (natural protein)
chain: MDLLPPKPKYNPLRNESLSSLEEGASGSTPPEELPSPSASSLGPILPPLPGDDSPTTLCSFFPRMSNLKLANPAGGRLGPKGEPGKAAEDGEGSAGAALRDSGLLPLLQDMNKLSGGGGRRTRVEGGQLGGEEWTRHGSFVNKPTRGWLHPNDKVMGPGVSYLVRYMGCVEVLQSMRALDFNTRTQVTREAISLVCEAVPGAKGATRRRKPCSRPLSSILGRSNLKFAGMPITLTVSTSSLNLMAADCKQIIANHHMQSISFASGGDPDTAEYVAYVAKDPVNQRACHILECPEGLAQDVISTIGQAFELRFKQYLRNPPKLVTPHDRMAGFDGSAWDEEEEEPPDHQYYNDFPGKEPPLGGVVDMRLREGAARPTLPSAQMSSHLGATLPIGQHAAGDHEVRKQMLPPPPCPGRELFDDPSYVNIQNLDKARQAGGGAGPPNPSLNGSAPRDLFDMKPFEDALRVPPPPQSMSMAEQLQGEPWFHGKLSRREAEALLQLNGDFLVRESTTTPGQYVLTGLQSGQPKHLLLVDPEGVVRTKDHRFESVSHLISYHMDNHLPIISAGSELCLQQPVDRKV
